Measured values taken from the supplement of paper PMC7877785.
± gives the uncertainty stated by the source.

Assay: self-splicing fitness, log relative to wild type (ln ratio); higher = more splicing; Tetrahymena group I intron in knt gene, E. coli kanamycin selection, DiMSum; sequences stand for … in CUCUCU…GGAGGGAAAAGUUAUCAGGCAUGCACCUGGUAGCUAGUCUUUAAACCAAUAGAUUGCAUCGGUUUAAAAGGCAAGACCGUCAAAUUGCGGGAAAGGGGUCAACAGCCGUUCAGUACCAAGUCUCAGGGGAAACUUUGAGAUGGCCUUGCAAAGGGUAUGGUAAUAAGCUGACGGACAUGGUCCUAACCACGCAGCCAAGUCCUAAGUCAACAGAUCUUCUGUUGAUAUGGAUGCAGUUCACAGACUAAAUGUCGGUCGGGGAAGAUGUAUUCUUCUCAUAAGAUAUAGUCGGACCUCUCCUUAAUGGGAGCUAGCGGAUGAAGUGAUGCAACACUGGAGCCGCUGGGAACUAAUUUGUAUGCGAAAGUAUAUUGAUUAGUUUUGGAGUACUCGUGGUCG
In short: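 DiMSum derived fitness as the error-weighted combination of fold changes across replicates, kanamycin versus no kanamycin, normalised to wild type. E. coli BL21(DE3) held the library, which randomised all eight P1ex-region intron nucleotides within the knt kanamycin-resistance gene on pET-22b(+). Six replicate transformations grew overnight at 37°C or 30°C on LB agar with or without 25 μg/mL kanamycin, also containing 100 μg/mL carbenicillin, 50 μM IPTG and 0.2% rhamnose, and pooled colonies were amplicon-sequenced on an Illumina HiSeq 2500.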

Row | Sequence | self-splicing fitness (ln) (30 °C) | self-splicing fitness (ln) (37 °C)
1 | AGACAGCAAUAUUACGUUAA | -3.26 ± 0.14 | -1.27 ± 0.087
2 | CGAAAGCAAUAUUACGCUGA | -3.09 ± 0.22 | -1.54 ± 0.19
3 | GCGAAGCAAUAUUACGACCG | -1.66 ± 0.25 | -0.671 ± 0.21
4 | UAACAGCAAUAUUACGUUCA | -0.481 ± 0.049 | 0.0141 ± 0.07
5 | CUCUAGCAAUAUUACGCCUU | -1.58 ± 0.18 | 
6 | ACCUAGCAAUAUUACGUUCU | -1.08 ± 0.1 | -0.757 ± 0.1
7 | CGAUAGCAAUAUUACGGGCA | -2.06 ± 0.14 | -1.53 ± 0.15
8 | GCAGAGCAAUAUUACGUAAC | -2.84 ± 0.29 | 0.113 ± 0.22
9 | AAGGAGCAAUAUUACGUAUC |  | -2.8 ± 0.44
10 | UUUGAGCAAUAUUACGUUUA | -3.32 ± 0.24 | -2.21 ± 0.23
11 | CACUAGCAAUAUUACGCUAU | -3.92 ± 0.3 | -2.38 ± 0.23
12 | UUUAAGCAAUAUUACGCGUG | -1.15 ± 0.13 | -0.368 ± 0.14
13 | GUAAAGCAAUAUUACGGUUC | -0.687 ± 0.097 | -0.679 ± 0.13
14 | GUAGAGCAAUAUUACGCUCG | -1.59 ± 0.13 | -0.12 ± 0.16
15 | AUUAAGCAAUAUUACGCUAC | -2.45 ± 0.43 | -3.4 ± 0.35
16 | UCACAGCAAUAUUACGGGAG | -3.75 ± 0.17 | -3.24 ± 0.22
17 | GGCAAGCAAUAUUACGUCCG | -3.73 ± 0.27 | -1.61 ± 0.2
18 | AUGGAGCAAUAUUACGAGUU | -4.04 ± 0.43 | -3.03 ± 0.22
19 | CAGGAGCAAUAUUACGGUGU | -3.1 ± 0.15 | -2.66 ± 0.2
20 | UACCAGCAAUAUUACGACGU | -2.11 ± 0.082 | -0.692 ± 0.089
21 | GCGAAGCAAUAUUACGAGAA | -2.63 ± 0.46 | -1.38 ± 0.26
22 | UCUGAGCAAUAUUACGUGUU | -3.93 ± 0.27 | -2.55 ± 0.23
23 | CUGUAGCAAUAUUACGGUUA | -2.17 ± 0.24 | -2.58 ± 0.36
24 | UGAAAGCAAUAUUACGGGAA | -2.6 ± 0.14 | -1.62 ± 0.12
25 | UAUCAGCAAUAUUACGGAUA | -2.17 ± 0.24 | -1.85 ± 0.31

Row | Sequence | self-splicing fitness (ln) (30 °C) | self-splicing fitness (ln) (37 °C)
26 | GUAAAGCAAUAUUACGAGAG | -3.16 ± 0.16 | -3.37 ± 0.23
27 | CCGAAGCAAUAUUACGAGUG | -0.855 ± 0.049 | -0.0149 ± 0.062
28 | AUCCAGCAAUAUUACGGUUG | -2.95 ± 0.1 | -1.03 ± 0.087
29 | UUUCAGCAAUAUUACGGUGU | -2.91 ± 0.13 | -2.15 ± 0.18
30 | ACCGAGCAAUAUUACGCCCA | -1.68 ± 0.29 | -3.03 ± 0.3
31 | GUCAAGCAAUAUUACGGGCC | -3.75 ± 0.27 | -2.77 ± 0.31
32 | CCUGAGCAAUAUUACGUGCC |  | -1.6 ± 0.32
33 | CCGUAGCAAUAUUACGAGAG | -3.86 ± 0.29 | -2.54 ± 0.24
34 | GGGAAGCAAUAUUACGCUUC | -3.32 ± 0.4 | 
35 | AAACAGCAAUAUUACGUUAG | -3.45 ± 0.14 | -1.72 ± 0.12
36 | GAUUAGCAAUAUUACGGCGC | 0.24 ± 0.072 | 0.233 ± 0.084
37 | GAGAAGCAAUAUUACGCAAC | -1.48 ± 0.14 | -2.11 ± 0.26
38 | GGCGAGCAAUAUUACGAGGG | -0.768 ± 0.24 | 
39 | CUGUAGCAAUAUUACGGAAC |  | -2.87 ± 0.34
40 | UGGCAGCAAUAUUACGUCGC | -3.89 ± 0.31 | -2.95 ± 0.43
41 | CGCGAGCAAUAUUACGGCAU | -2.86 ± 0.17 | -1.43 ± 0.12
42 | UCUUAGCAAUAUUACGAAGC | -2.94 ± 0.21 | -2.05 ± 0.17
43 | UCCAAGCAAUAUUACGUUCC |  | -1.57 ± 0.31
44 | CUUCAGCAAUAUUACGCGUG | -0.775 ± 0.08 | -0.978 ± 0.1
45 | AGCGAGCAAUAUUACGCCGA |  | -0.607 ± 0.36
46 | CCGAAGCAAUAUUACGACGA | -1.44 ± 0.12 | -0.711 ± 0.13
47 | GUACAGCAAUAUUACGUCAA | -1.75 ± 0.16 | -2.38 ± 0.21
48 | UGCGAGCAAUAUUACGUCGA | -2.22 ± 0.16 | -1.85 ± 0.2
49 | UCGCAGCAAUAUUACGCUGU | -3.13 ± 0.14 | -3.02 ± 0.19
50 | CCCCAGCAAUAUUACGGAGU | -4.02 ± 0.15 | -2.75 ± 0.15

Row | Sequence | self-splicing fitness (ln) (30 °C) | self-splicing fitness (ln) (37 °C)
51 | GCCAAGCAAUAUUACGCUAA | -0.682 ± 0.099 | -1.37 ± 0.13
52 | UACAAGCAAUAUUACGCGUA | -2.92 ± 0.24 | -2.76 ± 0.33
53 | AGUUAGCAAUAUUACGGCAU | -0.297 ± 0.063 | -0.161 ± 0.085
54 | ACAGAGCAAUAUUACGGCAC |  | -2.62 ± 0.44
55 | AUCCAGCAAUAUUACGUGUA | -1.71 ± 0.06 | -0.487 ± 0.059
56 | UCUGAGCAAUAUUACGUAAU | -3.33 ± 0.23 | -2.12 ± 0.29
57 | UCAAAGCAAUAUUACGUCAU | -2.36 ± 0.14 | -2.71 ± 0.2
58 | AGUUAGCAAUAUUACGUUAG | -3.45 ± 0.23 | -2.72 ± 0.3
59 | GACAAGCAAUAUUACGAUUA | -0.415 ± 0.096 | -0.117 ± 0.1
60 | CAAAAGCAAUAUUACGAAUU | -3.52 ± 0.18 | -2.27 ± 0.22
61 | CCUAAGCAAUAUUACGUUUA | -3.45 ± 0.18 | -3.14 ± 0.2
62 | GAAGAGCAAUAUUACGACUC | -0.32 ± 0.095 | -0.113 ± 0.11
63 | AUGCAGCAAUAUUACGGGAC | -2.82 ± 0.17 | -2.74 ± 0.19
64 | AAAAAGCAAUAUUACGUCUG | -0.785 ± 0.058 | -0.319 ± 0.072
65 | CUAAAGCAAUAUUACGCCUA | -3.27 ± 0.23 | 
66 | GACCAGCAAUAUUACGUUCG | -2.05 ± 0.073 | -0.063 ± 0.074
67 | UGAUAGCAAUAUUACGACAC |  | -2.22 ± 0.45
68 | GCGUAGCAAUAUUACGAAGC | -3.48 ± 0.3 | -1.67 ± 0.47
69 | CAGUAGCAAUAUUACGGGUG | -0.853 ± 0.06 | -0.398 ± 0.078
70 | GUCGAGCAAUAUUACGACUU | -1.88 ± 0.27 | -1.3 ± 0.32
71 | CAUCAGCAAUAUUACGAGCU | -1.92 ± 0.26 | -2.3 ± 0.47
72 | AGAGAGCAAUAUUACGACAG | -3.47 ± 0.43 | -2.52 ± 0.41
73 | GUGGAGCAAUAUUACGGGUA | -2.09 ± 0.31 | -2.4 ± 0.45
74 | CAUUAGCAAUAUUACGCAGA |  | -1.78 ± 0.31
75 | AGGUAGCAAUAUUACGCUUG | -1.541 ± 0.015 | -1.04 ± 0.034

Row | Sequence | self-splicing fitness (ln) (30 °C) | self-splicing fitness (ln) (37 °C)
76 | AAGGAGCAAUAUUACGACUG | -1.75 ± 0.16 | -1.05 ± 0.18
77 | UGAGAGCAAUAUUACGUGUG | -2.9 ± 0.14 | -2.28 ± 0.12
78 | CCGUAGCAAUAUUACGGUCG | -0.844 ± 0.074 | -0.447 ± 0.095
79 | CACUAGCAAUAUUACGACAC | -2.65 ± 0.22 | -1.69 ± 0.24
80 | GCACAGCAAUAUUACGAAAA | -1.7 ± 0.1 | -1.09 ± 0.12
81 | UCUAAGCAAUAUUACGAGCC | -2.34 ± 0.34 | 
82 | AAACAGCAAUAUUACGUUCA | -0.713 ± 0.045 | -0.557 ± 0.063
83 | UUUAAGCAAUAUUACGUGUA | -1.88 ± 0.12 | -0.799 ± 0.12
84 | UCACAGCAAUAUUACGUAUG | -0.949 ± 0.063 | -1.54 ± 0.099
85 | UCAAAGCAAUAUUACGGCAG | -1.24 ± 0.12 | 0.177 ± 0.16
86 | GAACAGCAAUAUUACGGGUG | -1.88 ± 0.072 | -1.59 ± 0.092
87 | UUGCAGCAAUAUUACGAACU | -2.25 ± 0.23 | -2.11 ± 0.22
88 | CCAUAGCAAUAUUACGUUAA | -3.44 ± 0.34 | -3.04 ± 0.38
89 | UAAAAGCAAUAUUACGACUA | 0.337 ± 0.089 | 0.733 ± 0.12
90 | CGACAGCAAUAUUACGACUU | -1.1 ± 0.059 | -0.881 ± 0.066
91 | UACUAGCAAUAUUACGACGC | -2.01 ± 0.25 | 0.0923 ± 0.18
92 | GAGCAGCAAUAUUACGAUUG | -2.17 ± 0.083 | -2.41 ± 0.17
93 | UCAAAGCAAUAUUACGUGAC | -3.36 ± 0.12 | -2.15 ± 0.16
94 | UAAAAGCAAUAUUACGAACG | 0.282 ± 0.1 | 0.847 ± 0.12
95 | GUCAAGCAAUAUUACGCGUC | -2.99 ± 0.15 | -2.22 ± 0.19
96 | UGGAAGCAAUAUUACGUUGA | -2.36 ± 0.17 | -2.01 ± 0.2
97 | GCAAAGCAAUAUUACGCCUC | -2.69 ± 0.12 | -1.86 ± 0.16
98 | CCUCAGCAAUAUUACGUUAA | -2.89 ± 0.17 | -2.96 ± 0.23
99 | UCAUAGCAAUAUUACGAUGA | -2.65 ± 0.18 | -0.815 ± 0.11
